Test results taken from PMC7826279 (Nucleic Acids Research, 2021).
Residue numbers refer to the chain shown, from its start. In names and notes the source's numbering stands.

Columns and labels:
Test in all cases: pull-down
[1] = target: T1, Sty1-His (S. pombe, UniProt Q09892 1-349)
T1 sequence (looked up): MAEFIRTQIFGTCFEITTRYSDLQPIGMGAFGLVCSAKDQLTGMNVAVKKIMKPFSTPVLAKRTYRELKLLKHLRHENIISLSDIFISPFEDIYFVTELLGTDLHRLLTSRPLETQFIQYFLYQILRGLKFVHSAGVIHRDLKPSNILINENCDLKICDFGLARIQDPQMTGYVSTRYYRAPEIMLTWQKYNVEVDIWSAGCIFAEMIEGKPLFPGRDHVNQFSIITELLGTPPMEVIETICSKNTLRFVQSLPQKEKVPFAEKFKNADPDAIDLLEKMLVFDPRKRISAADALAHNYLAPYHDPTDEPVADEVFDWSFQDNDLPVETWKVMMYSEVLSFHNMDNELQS

[2] = target: T2, Sty1 (K49R)-His (S. pombe, UniProt Q09892 1-349, K49R)
T2 sequence (looked up): T1 sequence (looked up) with K49R

[3] = target: phosphorylated CTD-GFP (S. pombe, UniProt P36594 1549-1751, phosphorylated (sites not told for this preparation))
[4] = target: T3, Ssu72-His (S. pombe, UniProt O42868 1-197)
T3 sequence (looked up): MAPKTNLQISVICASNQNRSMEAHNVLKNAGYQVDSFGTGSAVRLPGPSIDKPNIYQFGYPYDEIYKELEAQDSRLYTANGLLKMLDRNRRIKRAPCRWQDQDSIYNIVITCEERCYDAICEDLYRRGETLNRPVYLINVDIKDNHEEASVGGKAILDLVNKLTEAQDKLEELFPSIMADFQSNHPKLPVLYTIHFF

Sequence of phosphorylated CTD-GFP (P36594 1549-1751): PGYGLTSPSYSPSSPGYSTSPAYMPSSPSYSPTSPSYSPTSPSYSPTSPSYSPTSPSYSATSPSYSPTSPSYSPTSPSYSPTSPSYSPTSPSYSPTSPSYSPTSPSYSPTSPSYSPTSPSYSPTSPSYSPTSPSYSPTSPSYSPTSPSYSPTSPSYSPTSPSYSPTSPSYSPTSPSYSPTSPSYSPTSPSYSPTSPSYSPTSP

B1: GST-Rpb1-CTD (domain or fragment)
chain: not shown
[1]
  binding result: binds
[2]
  binding result: binds

B2: Pin1-GST (natural protein, S. pombe, UniProt O74448 1-175, looked up)
chain: MSNTGLPKPWIVKISRSRNRPYFFNTETHESLWEPPAATDMAALKKFIANELQESVTPTEASNSPKIRASHLLVKHRESRRPSSWKEEHITRSKEEARKLAEHYEQLLKSGSVSMHDLAMKESDCSSARRGGELGEFGRDEMQKPFEDAAFALKPGEISGVVETSSGFHIIQRHA
[3]
  binding result: binds
[4]
  binding result: binds

B3: Pin1 (S79E)-GST (natural protein, S. pombe, UniProt O74448 1-175, looked up)
chain: B2 chain with S79E
[3]
  binding result: binds
